Data: patent publication US20100260668A1 (published 2010)
Several values for one entry are separate records, joined by “and”; a condition that tells them apart may be missing. Identical values can stand only once.

B1: AB015 (anti-DLL-4 (seq. 1) parent antibody) (antibody, human IgG1, V domains shown)
VH: EVQLVESGGGLVQPGGSLRLSCAASGFTFTDNWISWVRQAPGKGLEWVGYISPNSGFTYYADSVKGRFTISADTSKNTAYLQMNSLRAEDTAVYYCARDNFGGYFDYWGQGTLVTVSS
VL: DIQMTQSPSSLSASVGDRVTITCRASQDVSTAVAWYQQKPGKAPKLLIYSASFLYSGVPSRFSGSGSGTDFTLTISSLQPEDFATTYYCQQSYTGTVTFGQGTKVEIKR
notes: also called AB015VH; AB015VL
B2: DVD513 (DLL4/VEGF DVD-Ig) (bispecific antibody, human IgG1)
VH: EVQLQQSGPELEKPGASVKISCKASGYSFTGYNMNWVKQSNGKSLEWIGNIDPYFGGTNYNQKFKGKATLTVDKSSSTAYMQLKSLTSEDSAVYYCARNYDYDGGCFDYWGQGTTLTVSSASTKGPEVQLVESGGGLVQPGGSLRLSCAASGFTISDYWIHWVRQAPGKGLEWVAGITPAGGYTYYADSVKGRFTISADTSKNTAYLQMNSLRAEDTAVYYCARFVFFLPYAMDYWGQGTLVTVSS
VL: QAVVTQESALTTSPGETVTLTCRSSTGAVTTSNYANWVQEKPDHLFTGLIGGTNNRAPGVPARFSGSLIGDKAALTITGAQTEDEAIYFCALWYSNHWVFGGGTKLTVLGQPKAAPDIQMTQSPSSLSASVGDRVTITCRASQDVSTAVAWYQQKPGKAPKLLIYSASFLYSGVPSRFSGSGSGTDFTLTISSLQPEDFATYYCQQSYTTPPTFGQGTKVEIKR
notes: HC linker short, LC linker short; also called DVD513H; DVD513L
B3: DVD490 (VEGF/DLL4 DVD-Ig) (bispecific antibody, human IgG1)
VH: EVQLVESGGGLVQPGGSLRLSCAASGFTISDYWIHWVRQAPGKGLEWVAGITPAGGYTYYADSVKGRFTISADTSKNTAYLQMNSLRAEDTAVYYCARFVFFLPYAMDYWGQGTLVTVSSASTKGPEVQLQQSGPELVKPGASVKMSCKASGYTFTSYVINWVKQKPGQGLEWIGLINPYNDGTKYNEKFKVKATLTSDKSSSTAYMELSSLTSEDSAVYYCASYYYGSRYYFDYWGQGTTLTVSS
VL: DIQMTQSPSSLSASVGDRVTITCRASQDVSTAVAWYQQKPGKAPKLLIYSASFLYSGVPSRFSGSGSGTDFTLTISSLQPEDFATYYCQQSYTTPPTFGQGTKVEIKRTVAAPDIQMTQSSSYLSVSLGGRVTITCKASDHINNWLAWYQQKPGNAPRLLISGATSLETGVPSRFSGSGSGKDYTLSITSLQTEDVATYYCQQYWSIPLTFGAGTKLELKR
notes: HC linker short, LC linker short; also called DVD490H; DVD490L
B4: AB073 (anti-DLL4 (seq. 4) parent antibody) (antibody, human IgG1, V domains shown)
VH: EVQLQQSGPELEKPGASVKISCKASGYSFTGYNMNWVKQSNGKSLEWIGNIDPYFGGTNYNQKFKGKATLTVDKSSSTAYMQLKSLTSEDSAVYYCARNYDYDGGCFDYWGQGTTLTVSS
VL: QAVVTQESALTTSPGETVTLTCRSSTGAVTTSNYANWVQEKPDHLFTGLIGGTNNRAPGVPARFSGSLIGDKAALTITGAQTEDEAIYFCALWYSNHWVFGGGTKLTVLG
notes: also called AB073VH; AB073VL
B5: DVD444 (VEGF/DLL4 DVD-Ig) (bispecific antibody, human IgG1)
VH: EVQLVESGGGLVQPGGSLRLSCAASGFTISDYWIHWVRQAPGKGLEWVAGITPAGGYTYYADSVKGRFTISADTSKNTAYLQMNSLRAEDTAVYYCARFVFFLPYAMDYWGQGTLVTVSSASTKGPQVQLVQSGAEVKKPGASVKISCKASGYSFTAYYIHWVKQAPGQGLEWIGYISSYNGATNYNQKFKGRVTFTTDTSTSTAYMELRSLRSDDTAVYYCARDYDYDVGMDYWGQGTLVTVSS
VL: DIQMTQSPSSLSASVGDRVTITCRASQDVSTAVAWYQQKPGKAPKLLIYSASFLYSGVPSRFSGSGSGTDFTLTISSLQPEDFATYYCQQSYTTPPTFGQGTKVEIKRTVAAPDIVMTQSPDSLAVSLGERATISCRASESVDNYGISFMKWFQQKPGQPPKLLIYAASNQGSGVPDRFSGSGSGTDFTLTISSLQAEDVAVYYCQQSKEVPWTFGGGTKVEIKR
notes: HC linker short, LC linker short; also called DVD444H; DVD444L
B6: AB072 (anti-DLL4 (seq. 3) parent antibody) (antibody, human IgG1, V domains shown)
VH: EVQLQQSGPELVKPGASVKMSCKASGYTFTSYVINWVKQKPGQGLEWIGLINPYNDGTKYNEKFKVKATLTSDKSSSTAYMELSSLTSEDSAVYYCASYYYGSRYYFDYWGQGTTLTVSS
VL: DIQMTQSSSYLSVSLGGRVTITCKASDHINNWLAWYQQKPGNAPRLLISGATSLETGVPSRFSGSGSGKDYTLSITSLQTEDVATYYCQQYWSIPLTFGAGTKLELKR
notes: also called AB072VH; AB072VL
B7: DVD466 (VEGF/DLL4 DVD-Ig) (bispecific antibody, human IgG1)
VH: EVQLVESGGGLVQPGGSLRLSCAASGFTISDYWIHWVRQAPGKGLEWVAGITPAGGYTYYADSVKGRFTISADTSKNTAYLQMNSLRAEDTAVYYCARFVFFLPYAMDYWGQGTLVTVSSASTKGPEVQLVESGGGLVQPGGSLRLSCAASGFTFTDNWISWVRQAPGKGLEWVGYISPNSGFTYYADSVKGRFTISADTSKNTAYLQMNSLRAEDTAVYYCARDNFGGYFDYWGQGTLVTVSS
VL: DIQMTQSPSSLSASVGDRVTITCRASQDVSTAVAWYQQKPGKAPKLLIYSASFLYSGVPSRFSGSGSGTDFTLTISSLQPEDFATYYCQQSYTTPPTFGQGTKVEIKRTVAAPDIQMTQSPSSLSASVGDRVTITCRASQDVSTAVAWYQQKPGKAPKLLIYSASFLYSGVPSRFSGSGSGTDFTLTISSLQPEDFATTYYCQQSYTGTVTFGQGTKVEIKR
notes: HC linker short, LC linker short; also called DVD466H; DVD466L
B8: DVD489 (DLL4/VEGF DVD-Ig) (bispecific antibody, human IgG1)
VH: EVQLQQSGPELVKPGASVKMSCKASGYTFTSYVINWVKQKPGQGLEWIGLINPYNDGTKYNEKFKVKATLTSDKSSSTAYMELSSLTSEDSAVYYCASYYYGSRYYFDYWGQGTTLTVSSASTKGPEVQLVESGGGLVQPGGSLRLSCAASGFTISDYWIHWVRQAPGKGLEWVAGITPAGGYTYYADSVKGRFTISADTSKNTAYLQMNSLRAEDTAVYYCARFVFFLPYAMDYWGQGTLVTVSS
VL: DIQMTQSSSYLSVSLGGRVTITCKASDHINNWLAWYQQKPGNAPRLLISGATSLETGVPSRFSGSGSGKDYTLSITSLQTEDVATYYCQQYWSIPLTFGAGTKLELKRTVAAPDIQMTQSPSSLSASVGDRVTITCRASQDVSTAVAWYQQKPGKAPKLLIYSASFLYSGVPSRFSGSGSGTDFTLTISSLQPEDFATYYCQQSYTTPPTFGQGTKVEIKR
notes: HC linker short, LC linker short; also called DVD489H; DVD489L
B9: AB069 (anti-DLL4 (seq. 2) parent antibody) (antibody, human IgG1, V domains shown)
VH: QVQLVQSGAEVKKPGASVKISCKASGYSFTAYYIHWVKQAPGQGLEWIGYISSYNGATNYNQKFKGRVTFTTDTSTSTAYMELRSLRSDDTAVYYCARDYDYDVGMDYWGQGTLVTVSS
VL: DIVMTQSPDSLAVSLGERATISCRASESVDNYGISFMKWFQQKPGQPPKLLIYAASNQGSGVPDRFSGSGSGTDFTLTISSLQAEDVAVYYCQQSKEVPWTFGGGTKVEIKR
notes: also called AB069VH; AB069VL
B10: DVD514 (VEGF/DLL4 DVD-Ig) (bispecific antibody, human IgG1)
VH: EVQLVESGGGLVQPGGSLRLSCAASGFTISDYWIHWVRQAPGKGLEWVAGITPAGGYTYYADSVKGRFTISADTSKNTAYLQMNSLRAEDTAVYYCARFVFFLPYAMDYWGQGTLVTVSSASTKGPEVQLQQSGPELEKPGASVKISCKASGYSFTGYNMNWVKQSNGKSLEWIGNIDPYFGGTNYNQKFKGKATLTVDKSSSTAYMQLKSLTSEDSAVYYCARNYDYDGGCFDYWGQGTTLTVSS
VL: DIQMTQSPSSLSASVGDRVTITCRASQDVSTAVAWYQQKPGKAPKLLIYSASFLYSGVPSRFSGSGSGTDFTLTISSLQPEDFATYYCQQSYTTPPTFGQGTKVEIKRTVAAPQAVVTQESALTTSPGETVTLTCRSSTGAVTTSNYANWVQEKPDHLFTGLIGGTNNRAPGVPARFSGSLIGDKAALTITGAQTEDEAIYFCALWYSNHWVFGGGTKLTVLG
notes: HC linker short, LC linker short; also called DVD514H; DVD514L

Legend:
[1] = molecular target: T1, DLL4 (DLL4 ECD/His tag, R&D Systems 1506-D4-050) (UniProt Q9NR61 27-529); experiment: Direct bind ELISA on DLL4; reference antibody
T1 construct: extracellular domain; not shown: His tag

[2] = molecular target: T1, DLL4 (DLL4 ECD/His tag, R&D Systems …); experiment: Direct bind ELISA on DLL4; DLL4 domain N-term., HC short, LC short
[3] = molecular target: T1, DLL4 (DLL4 ECD/His tag, R&D Systems …); experiment: Direct bind ELISA on DLL4; DLL4 domain C-term., HC short, LC short

| Binder | EC50 [1] | EC50 [3] | other results |
| --- | --- | --- | --- |
| B1 | 600 pM and 580 pM |  |  |
| B2 |  |  | EC50 [2]: 660 pM |
| B3 |  | 9270 pM |  |
| B4 | 220 pM and 210 pM |  |  |
| B5 |  | 30500 pM |  |
| B6 | 63400 pM and 63200 pM |  |  |
| B7 |  | 19800 pM |  |
| B8 |  |  | EC50 [2]: 620 pM |
| B9 | 230 pM and 240 pM |  |  |
| B10 |  | 21000 pM |  |
